# Results: patent publication US20100099619A1
# Where a chain is given by its changes, count along the chain named. Square brackets hold non-standard residues; d marks the D form. Ends that are not written are not given here. Ahx = NCCCCCC(=O)O
# T1: neuropeptide Y1 receptor, P25929
# T1 chain: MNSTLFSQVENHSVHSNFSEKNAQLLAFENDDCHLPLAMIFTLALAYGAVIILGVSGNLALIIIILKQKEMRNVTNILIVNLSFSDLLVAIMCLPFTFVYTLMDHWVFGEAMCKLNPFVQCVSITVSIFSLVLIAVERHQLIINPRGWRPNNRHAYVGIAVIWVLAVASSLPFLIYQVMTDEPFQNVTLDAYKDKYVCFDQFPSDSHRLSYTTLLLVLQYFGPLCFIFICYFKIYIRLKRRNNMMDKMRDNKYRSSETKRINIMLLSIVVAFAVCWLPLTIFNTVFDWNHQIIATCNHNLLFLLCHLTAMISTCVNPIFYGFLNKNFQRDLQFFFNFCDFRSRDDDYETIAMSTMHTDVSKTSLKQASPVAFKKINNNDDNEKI
# T2: neuropeptide Y2 receptor, P49146
# T2 chain: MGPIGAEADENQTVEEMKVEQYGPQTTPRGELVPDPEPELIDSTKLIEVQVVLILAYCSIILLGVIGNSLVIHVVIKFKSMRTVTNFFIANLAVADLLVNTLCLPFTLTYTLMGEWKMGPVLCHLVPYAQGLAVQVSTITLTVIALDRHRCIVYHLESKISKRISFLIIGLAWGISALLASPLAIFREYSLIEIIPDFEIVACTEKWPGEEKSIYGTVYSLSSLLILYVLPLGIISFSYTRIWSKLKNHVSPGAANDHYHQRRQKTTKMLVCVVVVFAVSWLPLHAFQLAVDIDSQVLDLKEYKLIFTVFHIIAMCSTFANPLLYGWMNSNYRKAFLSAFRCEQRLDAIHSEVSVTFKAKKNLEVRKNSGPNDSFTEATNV
# T3: neuropeptide Y5 receptor (Homo sapiens (Human)), Q15761
# T3 chain: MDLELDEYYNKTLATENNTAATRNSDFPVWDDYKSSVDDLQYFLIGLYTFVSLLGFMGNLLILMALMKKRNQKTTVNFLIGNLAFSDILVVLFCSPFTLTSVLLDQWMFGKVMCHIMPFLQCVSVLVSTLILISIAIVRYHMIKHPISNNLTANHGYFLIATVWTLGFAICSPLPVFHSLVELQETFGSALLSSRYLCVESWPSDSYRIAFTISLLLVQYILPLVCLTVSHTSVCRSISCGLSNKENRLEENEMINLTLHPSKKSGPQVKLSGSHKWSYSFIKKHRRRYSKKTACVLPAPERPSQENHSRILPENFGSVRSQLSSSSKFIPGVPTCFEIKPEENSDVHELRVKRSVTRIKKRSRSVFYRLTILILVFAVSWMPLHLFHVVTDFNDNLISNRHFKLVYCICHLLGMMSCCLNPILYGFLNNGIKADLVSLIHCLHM
# B1: PYY(1-4)Aca(16-36) (peptide)
# peptide: YPIK[Ahx]ELNRYYASLRHYLNLVTRQRY
# modifications: ends and bridges not checked
# B2: SEQ ID NO: 178 (peptide)
# peptide: YYASLRHYLNLVTRQRY
# modifications: not checked
# B3: SEQ ID NO: 177 (peptide)
# peptide: EELNRYYASLRHYLNLVTRQRY
# modifications: not checked
# B4: SEQ ID NO: 476 (peptide)
# peptide: YPIAPEAPGEDASPEELAQYAADLRRYINMLTRQRY
# modifications: not checked
# B5: SEQ ID NO: 477 (peptide)
# peptide: IAPEAPGEDASPEELAQYAADLRRYINMLTRQRY
# modifications: not checked
# B6: PP (human pancreatic polypeptide) (peptide)
# peptide: APLEPVYPGDNATPEQMAQYAADLRRYINMLTRPRY
# modifications: not checked
# B7: SEQ ID NO: 179 (peptide)
# peptide: RHYLNLVTRQRY
# modifications: not checked
# B8: SEQ ID NO 321 (peptide)
# peptide: B4 peptide with A4K, R25K
# modifications: not checked
# B9: SEQ ID NO 316 (peptide)
# peptide: B4 peptide with A4K, A18N
# modifications: not checked
# B10: SEQ ID NO 342 (peptide)
# peptide: B4 peptide with A4K, E15D
# modifications: not checked
# B11: SEQ ID NO 335 (peptide)
# peptide: B4 peptide with A4K, P8G, G9P
# modifications: not checked
# B12: SEQ ID NO 341 (peptide)
# peptide: B4 peptide with A4K, E15Q
# modifications: not checked
# B13: SEQ ID NO 347 (peptide)
# peptide: B4 peptide with A4K, D23E, N29Q
# modifications: not checked
# B14: SEQ ID NO 332 (peptide)
# peptide: B4 peptide with A4R
# modifications: not checked
# B15: SEQ ID NO 317 (peptide)
# peptide: B4 peptide with A4K, A18N, D23S
# modifications: not checked
# B16: SEQ ID NO 309 (peptide)
# peptide: B4 peptide with A4K, Q34P
# modifications: not checked
# B17: SEQ ID NO 318 (peptide)
# peptide: B4 peptide with P2A, A4K
# modifications: not checked
# B18: SEQ ID NO 310 (peptide)
# peptide: B5 peptide with A2K, Q32P
# modifications: not checked
# B19: SEQ ID NO 288 (peptide)
# peptide: APLEPVYPGDNATPEQMNRYYASLRHFLNLVTRQRY
# modifications: not checked
# B20: SEQ ID NO 296 (peptide)
# peptide: B19 peptide with Q16E, M17L, F27Y
# modifications: not checked
# B21: SEQ ID NO 308 (peptide)
# peptide: B19 peptide with H26A, F27Y
# modifications: not checked
# B22: SEQ ID NO 297 (peptide)
# peptide: B19 peptide with T13S, Q16E, M17L, F27Y
# modifications: not checked
# B23: SEQ ID NO 306 (peptide)
# peptide: B19 peptide with R19K, F27Y
# modifications: not checked
# B24: SEQ ID NO 295 (peptide)
# peptide: B19 peptide with M17L, F27Y
# modifications: not checked
# B25: SEQ ID NO 293 (peptide)
# peptide: B19 peptide with R19K, F27Y
# modifications: not checked
# B26: SEQ ID NO 289 (peptide)
# peptide: B19 peptide with F27Y, V31A, T32P
# modifications: not checked
# B27: SEQ ID NO 203 (peptide)
# peptide: ASLRHYLNLVTRQRY
# modifications: not checked
# B28: SEQ ID NO 202 (peptide)
# peptide: ASLRHYLNLVTRQRY
# modifications: not checked
# Molecular target: T1, neuropeptide Y1 receptor, P25929
# Assay: competition vs [125I]-hPYY, SK-N-MC membranes
row,Binder,Y1RBA [nM]
1,B1,4.4
2,B2,7.7
3,B3,5.8

# Molecular target: T2, neuropeptide Y2 receptor, P49146
# Assay: displacement of [125I]-human PYY, SK-N-BE membranes
row,Binder,Y2RBA [nM]
1,B4,7.4
2,B5,4.4

# Molecular target: neuropeptide Y4 receptor
# Assay: competition vs [125I]-hPP, Y4-transfected CHO-K1 membranes
# Chain of neuropeptide Y4 receptor (P50391 whole entry): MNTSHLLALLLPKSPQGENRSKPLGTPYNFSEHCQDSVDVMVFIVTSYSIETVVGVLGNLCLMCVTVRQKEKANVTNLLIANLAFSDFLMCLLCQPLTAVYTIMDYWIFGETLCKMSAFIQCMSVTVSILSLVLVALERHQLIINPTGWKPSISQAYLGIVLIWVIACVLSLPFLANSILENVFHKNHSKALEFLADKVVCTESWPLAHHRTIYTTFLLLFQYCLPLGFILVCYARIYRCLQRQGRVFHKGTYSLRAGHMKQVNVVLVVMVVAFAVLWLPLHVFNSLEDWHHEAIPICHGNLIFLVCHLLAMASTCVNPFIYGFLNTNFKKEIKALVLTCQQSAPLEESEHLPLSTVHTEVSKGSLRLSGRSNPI
row,Binder,Y4 RBA [nM]
1,B6,0.034
2,B1,65
3,B2,38
4,B7,33
5,B3,46

# Molecular target: T1, neuropeptide Y1 receptor, P25929
# Assay: radioligand competition, [125I]-hPYY, SK-N-MC membranes
row,Binder,Y1RBA [nM]
1,B8,12
2,B9,7.1
3,B10,15
4,B11,34
5,B12,1.8
6,B13,35
7,B14,13
8,B15,4.3
9,B16,3.3
10,B17,100
11,B18,29
12,B19,1.8
13,B20,2.7
14,B21,1
15,B22,3.6
16,B23,0.6
17,B24,1
18,B25,0.82

# Molecular target: T1, neuropeptide Y1 receptor, P25929
# Assay: displacement of [125I]-human PYY, SK-N-MC membranes
row,Binder,Y1RBA [nM]
1,B4,27
2,B5,265

# Molecular target: T3, neuropeptide Y5 receptor (Homo sapiens …)
# Assay: radioligand competition, [125I]-hPYY, Y5/CHO-K1 membranes
row,Binder,Y5RBA [nM]
1,B8,5.6
2,B9,1.1
3,B10,1.4
4,B11,3.6
5,B12,0.3
6,B13,51
7,B14,1
8,B15,0.69
9,B16,1.5
10,B17,1.9
11,B18,5.1
12,B19,1.1
13,B20,2.1
14,B21,1.4
15,B22,1.8
16,B23,0.27
17,B24,0.63
18,B26,0.83
19,B25,0.48

# Molecular target: T2, neuropeptide Y2 receptor, P49146
# Assay: radioligand competition, [125I]-hPYY, SK-N-BE membranes
row,Binder,Y2RBA [nM]
1,B8,3.7
2,B9,0.63
3,B10,0.62
4,B11,0.72
5,B12,0.15
6,B13,18
7,B14,0.54
8,B15,0.097
9,B16,78
10,B17,1.3
11,B18,454
12,B19,0.35
13,B20,0.76
14,B21,0.56
15,B22,0.32
16,B23,0.16
17,B24,0.18
18,B25,0.18

# Molecular target: neuropeptide Y4 receptor
# Assay: radioligand competition, [125I]-hPP, Y4/CHO-K1 membranes
row,Binder,Y4 RBA [nM]
1,B8,57
2,B9,52
3,B10,84
4,B11,109
5,B12,11
6,B13,740
7,B14,38
8,B15,16
9,B16,5.6
10,B17,84
11,B27,108
12,B28,23
13,B18,27
14,B19,11
15,B20,2.9
16,B21,2.1
17,B22,4
18,B23,1.2
19,B24,1
20,B26,48
21,B25,0.87

# Molecular target: neuropeptide Y4 receptor
# Assay: displacement of [125I]-human PP, Y4-transfected CHO-K1 membranes
row,Binder,Y4 RBA [nM]
1,B4,53
2,B5,164

# Molecular target: T2, neuropeptide Y2 receptor, P49146
# Assay: competition vs [125I]-hPYY, SK-N-BE membranes
row,Binder,Y2RBA [nM]
1,B1,0.21
2,B2,0.29
3,B3,0.34

# Molecular target: T3, neuropeptide Y5 receptor (Homo sapiens …)
# Assay: competition vs [125I]-hPYY, Y5-transfected CHO-K1 membranes
row,Binder,Y5RBA [nM]
1,B1,5.8
2,B2,17
3,B3,11

# Molecular target: neuropeptide Y5 receptor
# Assay: displacement of [125I]-human PYY, Y5-transfected CHO-K1 membranes
row,Binder,Y5RBA [nM]
1,B4,15
2,B5,18
